# Assay results published in patent US20180251563A1.
# B1: SEQ ID NO 37 (designed binder)
# chain: MGSWLWFKIFLAEIKYFLEALGGSEAELAAFDFEIHAFHVELFAYKGKGNPEVEVLREVAAEIRWDLQAYRHN
# B2: SEQ ID NO 36 (designed binder)
# chain: MGSWYEFYNRLYAIEIRLYALGGSEAELAAFEKEIAAFESELQAYKGKGNPEVERLRVRAAKIRVILQAYRHN
# B3: SEQ ID NO 35 (designed binder)
# chain: MGSWSEFYNRLDAIESRLLALGGSEAELALFEIQIARFEKVLQAYKGKGNPEVEALRGEARAIFAELYAYRHN
# Target: KIR-Fc
# Assay: phage ELISA, target-Fc against non-specific control
row,ELISA ratio (target to background),Binder
1,4.17,B1
2,4.24,B2
3,8.4,B3
